Experimental data: patent publication US20230212549A1, “COMPOUNDS COMPRISING A […] LIGAND AND USE THEREOF” (priority 2021, published 2023)
Bridge positions count the residues as written; N and C are the ends.

T1: Matrix metalloprotease 1, P03956
T1 chain: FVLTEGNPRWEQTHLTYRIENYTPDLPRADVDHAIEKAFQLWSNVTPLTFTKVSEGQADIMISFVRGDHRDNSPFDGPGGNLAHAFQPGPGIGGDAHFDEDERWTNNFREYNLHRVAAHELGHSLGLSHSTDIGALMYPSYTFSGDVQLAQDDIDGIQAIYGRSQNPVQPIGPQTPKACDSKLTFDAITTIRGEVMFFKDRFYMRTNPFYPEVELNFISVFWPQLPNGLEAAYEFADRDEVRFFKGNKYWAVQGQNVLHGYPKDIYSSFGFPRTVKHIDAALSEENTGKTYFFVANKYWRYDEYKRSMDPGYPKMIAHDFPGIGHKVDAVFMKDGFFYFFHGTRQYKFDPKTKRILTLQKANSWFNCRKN

T2: Caspase-9, P55211
T2 chain: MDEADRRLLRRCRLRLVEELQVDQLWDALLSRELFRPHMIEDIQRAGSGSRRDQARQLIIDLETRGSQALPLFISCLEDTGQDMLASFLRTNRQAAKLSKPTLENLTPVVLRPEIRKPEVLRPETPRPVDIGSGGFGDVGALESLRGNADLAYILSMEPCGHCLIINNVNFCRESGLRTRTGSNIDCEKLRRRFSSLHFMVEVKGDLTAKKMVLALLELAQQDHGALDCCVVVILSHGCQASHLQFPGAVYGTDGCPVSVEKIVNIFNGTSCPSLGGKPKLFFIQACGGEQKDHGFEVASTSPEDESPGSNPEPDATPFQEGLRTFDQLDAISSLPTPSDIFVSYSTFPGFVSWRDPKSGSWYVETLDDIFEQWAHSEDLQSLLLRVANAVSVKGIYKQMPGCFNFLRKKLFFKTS

T3: Caspase-7, P55210
T3 chain: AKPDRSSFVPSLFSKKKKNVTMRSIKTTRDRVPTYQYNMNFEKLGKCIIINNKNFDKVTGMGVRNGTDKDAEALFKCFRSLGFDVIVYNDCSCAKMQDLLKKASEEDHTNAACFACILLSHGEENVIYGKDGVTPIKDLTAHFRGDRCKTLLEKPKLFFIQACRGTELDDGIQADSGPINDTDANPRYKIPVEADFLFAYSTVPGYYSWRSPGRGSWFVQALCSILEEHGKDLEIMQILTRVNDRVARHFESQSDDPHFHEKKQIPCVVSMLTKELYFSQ

T4: Cathepsin F, Q9UBX1
T4 chain: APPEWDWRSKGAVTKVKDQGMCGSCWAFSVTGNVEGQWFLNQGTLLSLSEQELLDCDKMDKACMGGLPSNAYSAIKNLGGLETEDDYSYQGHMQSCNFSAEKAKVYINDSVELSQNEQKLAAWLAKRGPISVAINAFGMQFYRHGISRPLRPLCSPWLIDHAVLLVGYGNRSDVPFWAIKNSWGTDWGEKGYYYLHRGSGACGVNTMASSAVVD

T5: Renin, P00797
T5 chain: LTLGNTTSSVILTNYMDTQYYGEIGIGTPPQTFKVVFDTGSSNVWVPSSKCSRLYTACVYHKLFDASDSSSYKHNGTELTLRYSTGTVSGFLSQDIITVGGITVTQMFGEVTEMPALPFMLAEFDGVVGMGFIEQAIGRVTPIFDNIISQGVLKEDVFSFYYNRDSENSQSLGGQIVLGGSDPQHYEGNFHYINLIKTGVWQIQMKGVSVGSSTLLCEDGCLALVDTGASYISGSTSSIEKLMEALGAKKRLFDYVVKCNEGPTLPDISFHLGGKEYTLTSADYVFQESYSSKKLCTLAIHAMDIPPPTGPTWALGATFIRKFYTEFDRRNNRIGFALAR

T6: Acetylcholinesterase (h) (human), P22303
T6 chain: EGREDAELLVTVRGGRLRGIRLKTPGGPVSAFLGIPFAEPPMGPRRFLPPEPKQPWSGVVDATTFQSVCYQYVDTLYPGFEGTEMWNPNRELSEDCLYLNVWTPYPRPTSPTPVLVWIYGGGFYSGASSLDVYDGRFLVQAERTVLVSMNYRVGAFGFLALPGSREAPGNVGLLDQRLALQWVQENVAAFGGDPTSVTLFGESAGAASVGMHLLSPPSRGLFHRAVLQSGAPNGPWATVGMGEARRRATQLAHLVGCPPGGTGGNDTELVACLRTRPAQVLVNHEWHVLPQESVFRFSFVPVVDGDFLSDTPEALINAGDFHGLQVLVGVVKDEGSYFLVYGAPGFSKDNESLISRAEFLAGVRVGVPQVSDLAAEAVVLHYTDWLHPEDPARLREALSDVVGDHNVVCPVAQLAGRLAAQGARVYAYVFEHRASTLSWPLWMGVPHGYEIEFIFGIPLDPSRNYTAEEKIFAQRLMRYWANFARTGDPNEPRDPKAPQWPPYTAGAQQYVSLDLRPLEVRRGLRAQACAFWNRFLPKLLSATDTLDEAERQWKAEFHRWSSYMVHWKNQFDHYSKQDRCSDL


Columns and labels:
Assay in all cases: cell-based or functional assay
Cathepsin B, P07858 = target: Cathepsin B, P07858
[1] = target: T1, Matrix metalloprotease 1, P03956
Caspase-9, P55211 = target: T2, Caspase-9, P55211
[2] = target: FAP (protease specificity screen, BPS Biosciences), Q12884
FAP (protease specificity screen, BPS Biosciences), Q12884, sequence (Q12884 27-760 limits assumed): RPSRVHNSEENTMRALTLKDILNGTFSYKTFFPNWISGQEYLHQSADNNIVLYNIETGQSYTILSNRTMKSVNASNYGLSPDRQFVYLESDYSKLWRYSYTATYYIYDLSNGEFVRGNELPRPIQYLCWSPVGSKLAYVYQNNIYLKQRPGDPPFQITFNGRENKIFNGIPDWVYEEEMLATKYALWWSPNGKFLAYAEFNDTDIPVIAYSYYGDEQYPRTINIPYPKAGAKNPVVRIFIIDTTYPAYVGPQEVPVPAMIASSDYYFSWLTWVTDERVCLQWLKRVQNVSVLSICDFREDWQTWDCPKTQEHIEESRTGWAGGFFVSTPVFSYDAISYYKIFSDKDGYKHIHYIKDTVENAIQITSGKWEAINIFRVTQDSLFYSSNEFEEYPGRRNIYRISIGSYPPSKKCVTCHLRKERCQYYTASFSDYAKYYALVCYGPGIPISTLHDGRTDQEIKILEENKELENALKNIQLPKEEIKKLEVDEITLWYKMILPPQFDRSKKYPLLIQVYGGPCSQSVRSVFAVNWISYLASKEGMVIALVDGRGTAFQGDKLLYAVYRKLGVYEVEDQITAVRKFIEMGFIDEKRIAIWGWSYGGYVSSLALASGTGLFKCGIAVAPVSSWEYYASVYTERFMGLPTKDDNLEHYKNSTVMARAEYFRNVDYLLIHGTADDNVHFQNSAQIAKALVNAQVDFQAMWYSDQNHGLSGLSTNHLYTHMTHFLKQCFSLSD

Beta secretase, P56817 = target: Beta secretase, P56817
Beta secretase, P56817, sequence (P56817 22-457 limits assumed): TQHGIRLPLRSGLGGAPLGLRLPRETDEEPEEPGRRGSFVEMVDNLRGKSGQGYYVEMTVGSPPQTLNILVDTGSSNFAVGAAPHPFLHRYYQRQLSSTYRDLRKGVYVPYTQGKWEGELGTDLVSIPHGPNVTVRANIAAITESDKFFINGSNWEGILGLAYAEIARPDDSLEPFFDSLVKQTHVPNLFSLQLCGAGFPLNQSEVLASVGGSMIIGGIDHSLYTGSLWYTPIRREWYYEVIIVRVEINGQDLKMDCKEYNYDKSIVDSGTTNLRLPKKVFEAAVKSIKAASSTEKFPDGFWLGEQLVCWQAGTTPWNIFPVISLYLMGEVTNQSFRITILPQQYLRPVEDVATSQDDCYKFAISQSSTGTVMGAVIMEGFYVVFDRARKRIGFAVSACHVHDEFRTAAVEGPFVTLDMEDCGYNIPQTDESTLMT

[3] = target: Ubiquitin carboxyl-terminal hydrolase 14, P54578
Ubiquitin carboxyl-terminal hydrolase 14, P54578, sequence (P54578 whole entry): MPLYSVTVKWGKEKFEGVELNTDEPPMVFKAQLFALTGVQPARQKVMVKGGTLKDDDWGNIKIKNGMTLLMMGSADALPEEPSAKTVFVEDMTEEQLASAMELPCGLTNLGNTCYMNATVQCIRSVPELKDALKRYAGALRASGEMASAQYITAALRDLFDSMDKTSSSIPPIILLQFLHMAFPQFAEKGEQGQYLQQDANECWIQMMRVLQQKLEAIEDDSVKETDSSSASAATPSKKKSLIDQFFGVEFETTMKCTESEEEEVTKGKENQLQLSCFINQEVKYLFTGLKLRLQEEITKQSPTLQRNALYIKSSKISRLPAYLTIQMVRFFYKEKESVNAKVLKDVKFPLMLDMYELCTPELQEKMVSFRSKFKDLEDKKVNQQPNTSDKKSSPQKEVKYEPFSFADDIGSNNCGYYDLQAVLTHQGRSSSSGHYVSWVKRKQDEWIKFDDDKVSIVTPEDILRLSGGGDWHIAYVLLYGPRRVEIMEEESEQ

Caspase-7, P55210 = target: T3, Caspase-7, P55210
[4] = target: Lek kinase (h) (human), P06239
Lek kinase (h) (human), P06239, sequence (P06239 whole entry): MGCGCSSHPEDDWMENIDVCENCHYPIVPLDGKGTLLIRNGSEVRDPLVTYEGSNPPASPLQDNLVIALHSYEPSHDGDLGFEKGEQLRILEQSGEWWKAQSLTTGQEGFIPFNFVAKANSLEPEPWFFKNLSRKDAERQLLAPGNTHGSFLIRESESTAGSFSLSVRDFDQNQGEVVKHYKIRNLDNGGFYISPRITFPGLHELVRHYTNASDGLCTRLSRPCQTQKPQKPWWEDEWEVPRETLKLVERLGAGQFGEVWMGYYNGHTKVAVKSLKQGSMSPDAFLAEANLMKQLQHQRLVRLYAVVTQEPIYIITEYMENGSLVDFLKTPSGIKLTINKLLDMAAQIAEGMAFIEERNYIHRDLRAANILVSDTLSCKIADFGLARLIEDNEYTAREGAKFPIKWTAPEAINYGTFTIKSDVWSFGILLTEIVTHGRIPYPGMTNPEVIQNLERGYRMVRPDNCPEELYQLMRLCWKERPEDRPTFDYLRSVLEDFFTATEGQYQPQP

DPP8, Q6V1X1 = target: DPP8, Q6V1X1
DPP8, Q6V1X1, sequence (Q6V1X1 whole entry): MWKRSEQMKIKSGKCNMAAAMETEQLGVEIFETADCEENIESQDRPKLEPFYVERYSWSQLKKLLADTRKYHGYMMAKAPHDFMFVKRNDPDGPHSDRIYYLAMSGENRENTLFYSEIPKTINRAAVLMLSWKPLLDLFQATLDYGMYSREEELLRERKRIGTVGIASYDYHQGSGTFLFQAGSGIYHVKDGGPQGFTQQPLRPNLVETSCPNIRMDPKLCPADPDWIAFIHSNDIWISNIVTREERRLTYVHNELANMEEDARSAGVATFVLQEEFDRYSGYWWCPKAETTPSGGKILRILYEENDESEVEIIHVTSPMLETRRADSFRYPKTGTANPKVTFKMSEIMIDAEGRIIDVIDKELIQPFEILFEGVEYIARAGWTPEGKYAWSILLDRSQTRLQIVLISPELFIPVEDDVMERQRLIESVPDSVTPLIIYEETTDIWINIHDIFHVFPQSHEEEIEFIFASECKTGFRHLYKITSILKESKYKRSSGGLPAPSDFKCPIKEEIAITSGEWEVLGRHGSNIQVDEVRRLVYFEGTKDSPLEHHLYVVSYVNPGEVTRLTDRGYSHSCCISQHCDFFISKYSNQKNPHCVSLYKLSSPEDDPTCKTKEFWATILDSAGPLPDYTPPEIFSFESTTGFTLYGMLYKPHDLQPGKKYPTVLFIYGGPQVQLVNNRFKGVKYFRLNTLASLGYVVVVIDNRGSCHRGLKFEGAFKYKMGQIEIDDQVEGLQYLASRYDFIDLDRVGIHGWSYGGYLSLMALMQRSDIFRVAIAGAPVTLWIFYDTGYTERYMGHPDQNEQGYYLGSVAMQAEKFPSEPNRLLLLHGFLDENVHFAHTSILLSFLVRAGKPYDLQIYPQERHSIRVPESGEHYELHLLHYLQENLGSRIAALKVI

Cathepsin F, Q9UBX1 = target: T4, Cathepsin F, Q9UBX1
Renin, P00797 = target: T5, Renin, P00797
[5] = target: PDE3A (h) (human), Q14432
PDE3A (h) (human), Q14432, sequence (Q14432 669-1141 limits assumed): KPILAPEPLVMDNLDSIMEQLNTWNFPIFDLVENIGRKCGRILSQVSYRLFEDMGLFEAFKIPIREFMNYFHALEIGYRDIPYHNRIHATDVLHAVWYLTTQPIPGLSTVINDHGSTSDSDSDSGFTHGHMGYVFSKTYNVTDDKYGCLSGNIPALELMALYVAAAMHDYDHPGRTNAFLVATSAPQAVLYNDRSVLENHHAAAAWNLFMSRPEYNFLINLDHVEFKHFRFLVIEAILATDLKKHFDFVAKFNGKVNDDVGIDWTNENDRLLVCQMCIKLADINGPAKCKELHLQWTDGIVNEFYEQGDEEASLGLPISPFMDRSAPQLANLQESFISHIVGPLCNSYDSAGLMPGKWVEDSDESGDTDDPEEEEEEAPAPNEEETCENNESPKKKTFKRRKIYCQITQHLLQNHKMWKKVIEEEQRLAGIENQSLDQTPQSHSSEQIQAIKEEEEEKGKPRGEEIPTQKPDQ

[6] = target: T6, Acetylcholinesterase (h) (human), P22303

| Binder | Percentage inhibition (%) at 1 µM (Cathepsin B, P07858) [%] | Percentage inhibition (%) at 10 µM (Cathepsin B, P07858) [%] | Percentage inhibition (%) at 1 µM [1] [%] | Percentage inhibition (%) at 10 µM [1] [%] | Percentage inhibition (%) at 1 µM (Caspase-9, P55211) [%] | Percentage inhibition (%) at 10 µM (Caspase-9, P55211) [%] | Percentage inhibition (%) at 1 µM [2] [%] | Percentage inhibition (%) at 10 µM [2] [%] | Percentage inhibition (%) at 1 µM (Beta secretase, P56817) [%] | Percentage inhibition (%) at 10 µM (Beta secretase, P56817) [%] | Percentage inhibition (%) at 1 µM [3] [%] | Percentage inhibition (%) at 10 µM [3] [%] | Percentage inhibition (%) at 1 µM (Caspase-7, P55210) [%] | Percentage inhibition (%) at 10 µM (Caspase-7, P55210) [%] | % inhibition of control enzyme activity, compound at 10 µM [4] [%] | Percentage inhibition (%) at 1 µM (DPP8, Q6V1X1) [%] | Percentage inhibition (%) at 10 µM (DPP8, Q6V1X1) [%] | Percentage inhibition (%) at 1 µM (Cathepsin F, Q9UBX1) [%] | Percentage inhibition (%) at 10 µM (Cathepsin F, Q9UBX1) [%] | Percentage inhibition (%) at 1 µM (Renin, P00797) [%] | other results |
| --- | --- | --- | --- | --- | --- | --- | --- | --- | --- | --- | --- | --- | --- | --- | --- | --- | --- | --- | --- | --- | --- |
| Hex-CPPTQFCD-NH2 (bridge 1-7; not fully specified (bridges); printed as Hex-[Cys(tMeBn(DOTA-PP))-Pro-Pro-Thr-Gln-Phe-Cys]-Asp-NH2) [Hex-[Cys(tMeBn(DOTA-PP))-Pro-Pro-Thr-Gln-Phe-Cys]-Asp-NH2] | 26 | 36 | -1 | 2 | 5 | 8 | 98 | 99 | -8 | -5 | -1 | 5 | -3 | -3 | 10 | 1 | 5 | -3 | -24 | -1 | Percentage inhibition (%) at 10 µM (Renin, P00797): 3%; % inhibition of control enzyme activity, compound at 10 µM [5]: -3%; % inhibition of control enzyme activity, compound at 10 µM [6]: -6% |
| Hex-CPPTQFC-OH (bridge 1-7; not fully specified (bridges); printed as Hex-[Cys(tMeBn(DOTA-AET))-Pro-Pro-Thr-Gln-Phe-Cys]-OH) [Hex-[Cys(tMeBn(DOTA-AET))-Pro-Pro-Thr-Gln-Phe-Cys]-OH] | 1 | 2 | 1 | -7 | -1 | -2 | 97 | 99 | 1 | 7 | 1 | 2 | -1 | -7 | -4 | 1 | 11 | -23 | -25 | 0 | Percentage inhibition (%) at 10 µM (Renin, P00797): -1%; % inhibition of control enzyme activity, compound at 10 µM [5]: -37%; % inhibition of control enzyme activity, compound at 10 µM [6]: 1% |
